According to patent US20030232009A1 (Amgen, published 2003):

T1: Human 20.1 peptide (human)
T1 construct: synthetic peptide from the RB exon
T1 peptide: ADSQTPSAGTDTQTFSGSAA

T2: Human 18 mer peptide (human)
T2 construct: synthetic peptide from the RB exon
T2 peptide: VSSVQTPHLPTHADSQTPC

T3: Macaque 46 mer peptide (RB exon of macaque CD45RB) (macaque)
T3 construct: synthetic peptide
T3 peptide: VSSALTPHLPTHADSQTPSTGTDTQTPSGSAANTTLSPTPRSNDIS

T4: Human 46 mer peptide (RB exon of human CD45) (human)
T4 construct: synthetic peptide; also called CD45RB 46 mer
T4 peptide: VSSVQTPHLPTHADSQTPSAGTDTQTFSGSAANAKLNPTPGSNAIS

T5: Human 20.2 peptide (human)
T5 construct: synthetic peptide from the RB exon
T5 peptide: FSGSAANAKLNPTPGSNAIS

T6: Human CD45RB (format not stated) (human, UniProt P08575-9 26-1192, limits assumed)
T6 construct: also called RB exon of CD45
T6 sequence (looked up): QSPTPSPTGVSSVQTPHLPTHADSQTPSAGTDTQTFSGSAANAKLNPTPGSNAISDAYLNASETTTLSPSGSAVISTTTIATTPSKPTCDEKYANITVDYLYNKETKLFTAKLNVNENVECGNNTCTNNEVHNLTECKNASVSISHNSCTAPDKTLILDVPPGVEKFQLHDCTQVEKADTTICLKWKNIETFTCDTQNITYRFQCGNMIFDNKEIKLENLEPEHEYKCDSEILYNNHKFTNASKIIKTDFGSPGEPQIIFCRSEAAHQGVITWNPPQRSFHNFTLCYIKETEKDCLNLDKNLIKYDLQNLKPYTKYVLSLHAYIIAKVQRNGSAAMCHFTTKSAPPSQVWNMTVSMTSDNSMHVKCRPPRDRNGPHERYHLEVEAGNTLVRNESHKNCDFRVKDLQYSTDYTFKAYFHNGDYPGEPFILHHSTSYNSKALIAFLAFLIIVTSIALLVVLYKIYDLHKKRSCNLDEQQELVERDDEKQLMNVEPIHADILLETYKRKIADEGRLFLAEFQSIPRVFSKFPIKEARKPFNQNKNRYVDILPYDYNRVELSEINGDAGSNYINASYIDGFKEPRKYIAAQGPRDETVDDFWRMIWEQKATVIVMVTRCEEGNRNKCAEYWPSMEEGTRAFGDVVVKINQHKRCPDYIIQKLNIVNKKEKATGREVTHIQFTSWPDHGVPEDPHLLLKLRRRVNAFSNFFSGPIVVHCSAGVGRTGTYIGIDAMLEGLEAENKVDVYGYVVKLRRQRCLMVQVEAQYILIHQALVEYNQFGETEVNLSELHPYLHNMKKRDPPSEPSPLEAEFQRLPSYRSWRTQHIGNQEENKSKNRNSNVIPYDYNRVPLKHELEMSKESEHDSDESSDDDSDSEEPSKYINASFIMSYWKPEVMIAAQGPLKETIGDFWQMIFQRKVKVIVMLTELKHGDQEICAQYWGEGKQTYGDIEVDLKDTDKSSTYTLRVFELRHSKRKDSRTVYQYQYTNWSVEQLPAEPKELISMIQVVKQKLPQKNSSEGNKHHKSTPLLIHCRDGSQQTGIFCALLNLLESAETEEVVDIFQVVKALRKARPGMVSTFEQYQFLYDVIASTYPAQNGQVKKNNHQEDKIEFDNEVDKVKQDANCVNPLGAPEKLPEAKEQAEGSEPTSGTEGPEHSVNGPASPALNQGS

T7: chimeric CD45RB (full length human CD45RB with the macaque RB exon) transiently expressed in CHO cells (human; macaque, UniProt P08575-9 26-33; P08575-9 81-1192)
T7 construct: whole chimeric protein on CHO cells; also called Macaque CD45RB CHO
T7 sequence: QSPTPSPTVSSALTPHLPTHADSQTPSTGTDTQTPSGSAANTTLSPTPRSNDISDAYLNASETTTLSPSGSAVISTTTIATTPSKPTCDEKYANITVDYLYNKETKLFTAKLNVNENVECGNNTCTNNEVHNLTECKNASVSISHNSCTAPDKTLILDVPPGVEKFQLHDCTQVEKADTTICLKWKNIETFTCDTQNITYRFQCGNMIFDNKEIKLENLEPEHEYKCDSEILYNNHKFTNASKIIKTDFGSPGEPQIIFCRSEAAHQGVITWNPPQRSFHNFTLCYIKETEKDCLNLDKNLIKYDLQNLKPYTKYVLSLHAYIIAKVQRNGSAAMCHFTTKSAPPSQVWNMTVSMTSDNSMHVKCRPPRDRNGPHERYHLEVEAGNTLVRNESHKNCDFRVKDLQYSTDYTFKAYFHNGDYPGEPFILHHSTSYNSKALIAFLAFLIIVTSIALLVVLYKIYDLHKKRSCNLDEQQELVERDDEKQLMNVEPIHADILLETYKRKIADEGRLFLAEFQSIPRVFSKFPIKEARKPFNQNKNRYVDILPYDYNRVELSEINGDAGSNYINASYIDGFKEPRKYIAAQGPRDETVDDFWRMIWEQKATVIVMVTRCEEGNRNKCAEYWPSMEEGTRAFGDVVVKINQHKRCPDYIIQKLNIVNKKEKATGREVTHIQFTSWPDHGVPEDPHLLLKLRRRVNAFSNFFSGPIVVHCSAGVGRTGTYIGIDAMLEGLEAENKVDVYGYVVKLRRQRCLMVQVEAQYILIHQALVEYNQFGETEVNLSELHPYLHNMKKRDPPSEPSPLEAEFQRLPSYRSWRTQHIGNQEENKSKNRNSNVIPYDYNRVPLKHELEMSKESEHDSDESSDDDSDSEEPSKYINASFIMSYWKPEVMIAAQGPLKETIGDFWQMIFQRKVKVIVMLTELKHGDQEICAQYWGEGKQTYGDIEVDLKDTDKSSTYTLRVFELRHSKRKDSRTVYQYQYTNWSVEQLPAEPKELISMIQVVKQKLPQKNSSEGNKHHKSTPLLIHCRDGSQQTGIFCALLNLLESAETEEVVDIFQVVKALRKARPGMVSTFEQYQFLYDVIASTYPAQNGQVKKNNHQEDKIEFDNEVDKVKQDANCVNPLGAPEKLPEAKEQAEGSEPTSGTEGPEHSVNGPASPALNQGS


Legend:
Human 20.1 peptide = molecular target: T1, Human 20.1 peptide; test: recombinant antibody on peptide
Human 18 mer peptide = molecular target: T2, Human 18 mer peptide; test: recombinant antibody on peptide
[1] = molecular target: T3, Macaque 46 mer peptide (RB exon of …); test: recombinant antibody on peptide
[2] = molecular target: T4, Human 46 mer peptide (RB exon of human …); test: recombinant antibody on peptide
Human 20.2 peptide = molecular target: T5, Human 20.2 peptide; test: recombinant antibody on peptide
[3] = molecular target: T6, Human CD45RB (format not stated); test: screening of harvest 9
[4] = molecular target: T6, Human CD45RB (format not stated); test: screening of harvest 2
[5] = molecular target: T7, chimeric CD45RB (full length human …); test: transiently transfected CHO cells

binding result (Human 20.1 peptide)	binding result (Human 18 mer peptide)	binding result [1]	binding result [2]	binding result (Human 20.2 peptide)	binding result [3]	binding result [4]	binding result [5]	Binder
no binding	no binding	no binding	no binding	no binding	binds	–	–	AB-CD45RB-XG2-648 (antibody, human IgG2, V domains shown, recombinant human IgG2 kappa; also called sc648) VH: QVQLVESGGGLVKPGGSLRLSCAASGFTFNVYYMNWIRQAPGKGLEWVSYISTSSSAIYYADSVKGRFTISRDNAKNSLYLQMNSLRAEDTAVYYCARRTGSTTVFDYWGQGTLVTVSS VL: EIVLTQSPATLSVSPGERATLSCRASQSINNNLAWYQQKPGQAPRLLIYGASTRATGIPAKFSGSGSGTEFTLTISSLQSENFAVYYCQQYNKWPLTFGGGTKVEIK
no binding	no binding	–	binds	no binding	–	binds	no binding	AB-CD45RB-XG2-009 (antibody, human IgG2, V domains shown, recombinant human IgG2 kappa; also called sc009; 16C9 (sc009)) VH: QVQLVESGGGVVQPGRSLRLSCAASGFTFSNYGMHWVRQAPGKGLEWVAVIWYDGSKRFYAGSVKGRFTISRDNSKNTLYLQMNSLRAEDTAVYYCARTTDYWGQGTMVTVSS VL: DIVMTQTPLSLSVTPGQPASISCKSSQSLLHSDGKTYLYWYLQKPGQPPQLLIYEVSNRFSGVPDRFSGSGSGTDFTLKISRVEAEDVGLYWCMQSIQLPITFGQGTRLEIK
